Data on 13 molecules can be found in patent publication US20260069656A1, “Nutritive Polypeptides and Formulations Thereof, and Methods of Production and Use Thereof” (Axcella Health Inc., priority 2013, published 2026).

Data set [1] in a line: pH solubility screen in Citric Acid / Dibasic Sodium Phosphate buffers. Format: physicochemical. As to conditions: for pH Range where Protein is >80% detected as Soluble and A650 <1 OD: Low: lower pH of range; for pH Range where Protein is >80% detected as Soluble and A650 <1 OD: High: upper pH of range. The procedure: pH Solubility. […] Protein was either lyophilized and then resuspended in buffer cocktail mixtures, or concentrated and then spiked into buffer cocktail mixtures at a final protein concentration of 5 to 30 mg/ml. As a control, protein was also dissolved in a solution of 8 M urea. Protein solutions were shaken for 10 min at room temperature. Turbidity of proteins was determined by measuring the absorbance of protein solutions at 650 nm. The protein solution was then centrifuged for 10 min at 1100×g to pellet undissolved or precipitated protein. The soluble protein fraction (supernatant) was sampled and protein concentration was measured by one or more of the following methods: Coomassie Plus Protein Assay (Pierce), Chip electrophoresis, gel electrophoresis, and/or absorbance at 280 nm. The pH range over which select proteins remained greater than 80% soluble as determined by Bradford and the A650 value are listed in Table E31C.

The nature of data set [2]: Intact half-life during simulated gastric fluid (SGF) digestion. The following applies: for SGF Half-life (t½): SGF pH 1.5, pepsin:polypeptide 1:20 w/w, 37° C., produced in E. coli unless otherwise noted; for Half-life: purified proteins, chip electrophoresis, SGF.
Data set [3] can be described thus: Thermostability, ProteoStat Thermal Shift Stability Kit, temperature of aggregation. Format: physicochemical. As for the experimental part:
Thermostability. The thermostability of proteins in a buffer cocktail of Citric Acid and Dibasic Sodium Phosphate over a pH range of 2.8 to 7.1 (preparation described above in Table E31B) was determined using the ProteoStat® Thermal Shift Stability Kit (Enzo Life Sciences) according to the manufacturer's standard protocol. Briefly, protein solutions (˜10 mg/ml) containing 1× ProteoStat TS Detection Reagent were heated from 25° C. to 95° C. at a rate of 0.5° C. per 30 sec using a real-time PCR (rtPCR) thermocycler (BioRad) equipped with a plate reader (SynergyMx, Biotek) while monitoring the fluorescence with a Texas Red filter.

The nature of data set [4]: Solubility of proteins (lyophilized/reconstituted or ultrafiltered). The following applies: produced in E. coli unless otherwise noted.
Description: Solubility. […] Protein samples were dried by lyophilization on a FreeZone Freeze Dry System (Labconco) using the manufacturer's standard protocol and then resuspended in buffer to the desired concentration. Centrifugal and tangential ultrafiltration were used to selectively remove buffer from the protein sample until the desired concentration was reached. Centrifugal ultrafiltration of protein solutions was performed by centrifugation (10,000×g) of 10 mg of protein in an Amicon centrifugal filter (Millipore) with a molecular weight cutoff of 3 kDa, 10 kDa, or 30 kDa, depending on the protein size, until the desired contrentration was reached. Ultrafiltration of protein solutions was performed on Hydrosart ultrafiltration cassettes (Sartorius Stedim, Bohemia, NY) with a molecular weight cutoff of 3 kDa, 10 kDa, or 30 kDa, depending on the protein size, at a cross flow rate of 12 L/m2/min. For most processes, transmembrane pressure was maintained at 20 psi and performed until the desired contrentration was reached.
The protein concentration of the above samples was measured by one or a combination of the following methods: Coomassie Plus Protein Assay, absorbance at 280 nm (A280), and total amino acid analysis. Coomassie Plus Protein Assays (Pierce) were performed according to the manufacturer's protocol. Absorbance at 280 nm was measured on a Nanodrop 2000 UV-Vis spectrophotometer. Protein concentration was determined using the A280 value and molar extinction coefficient, which was calculated by primary amino acid sequence using ProtParam (Gasteiger, Elisabeth, et al. The proteomics protocols handbook. Humana Press, 2005. 571-607.). Total amino acids were analyzed by HPLC after acid hydrolysis as described in Henderson, J. W., et al. Agilent Technologies (2010).
[5] abbreviates: heated 25° C. to 95° C., NS = protein not soluble.

B1: SEQID-00269: nutritive polypeptide (protein)
chain: DLKKKLDDDLGTLENLEELKKKLLKDLELLSQRLEELALAYDKLEKTKTRLQQELDDLLLDLDHQ
As for B1, in data set [1], the “pH Range where Protein is >80% detected as Soluble and A650 <1 OD: Low” value (shortened to “pH Range where Protein is >80% detected … Low”) amounted to 7.2; the “pH Range where Protein is >80% detected as Soluble and A650 <1 OD: High” value (shortened to “pH Range where Protein is >80% detected … High”) stood at 9.1. Also, the “SGF Half-life (t½)” value in data set [2] was 41 min. Moreover, the “Tagg (pH 7.1)” value in data set [3] (heated from 25° C. to 95° C.) was over 95.

B2: SEQID-00510: nutritive polypeptide naturally produced in Turkey, recombinantly expressed in E. coli (protein)
chain: MVPIAEKMAEKQEEPSNTQNGEPDNAEEGEGKKKKKVKREDLPPFEIVTGERLPAIFFKFQFRNVEYSSGRNKTFLCYVVETQGKESTTSRGYLEDEHAASHAEIAFFNTILPKCESSLRYNITWYVSSSPCVTCADRISETLRKNKNLRLTIMVGRLFMWEEPEMQAALKKMKSAGCKLRIMKPQDFEYVWQNFVEQEEGEEAKAFVPWEDIQENFQYYEEKLAEILQ
modifications: Meleagris gallopavo
notes: nutritive polypeptide naturally produced in Turkey, recombinantly expressed in E. coli
As for B2, in data set [1], the “pH Range where Protein is >80% detected … Low” value turned out to be 6.5; the “pH Range where Protein is >80% detected as Soluble and A650 <1 OD: Other” value (“pH Range where Protein is >80% detected … Other” below) is 2.8; the “pH Range where Protein is >80% detected … High” value is 7.1. In data set [2], the “SGF Half-life (t½)” value is reported as 0.3 min and the “Half-life” value is on record as 0.3 min.

B3: SEQID-00099: nutritive polypeptide (protein, listed as Thermosynechococcus elongatus)
chain: MNQSEILEKVKAIVADQLSVDPEKVVPEASFAEDLNADSLDSVELIMALEEEFGVEIPDEEAEKLKTVQDVLDFINNKVAA
Usually Solubility stands for the concentration that dissolves in the medium under given conditions. On to B3, for which, in data set [4], the “Solubility” value is 91 mg/mL. Further, the “SGF Half-life (t½)” value in data set [2] is 1 min. Moreover, the “Tagg (pH 7.1)” value in data set [3] (heated from 25° C. to 95° C.) amounted to 64.

B4: SEQID-00265: nutritive polypeptide (protein, listed as Bos taurus)
chain: SEGDRLRVELAEKANKLQNELDNVSTLLEEAEKKGIKFAKDAAGLESQLQDTQELLQEETRQKLNLSSRIRQLEEERSSLQEQQEEEEEARRSLEKQLQALQAQLTDTKKKVDDDLGTIENLEEAKKKLLKDVEVLSQRLEEKALAYDKLEKTKTRLQQELDDLLVDLDHQRQIVSNLEKKQKKFDQLLAEEKNISARYAEERDRAEAEAREKETKALSLARALEEALEAREEAERQNKQLRADMEDLMSSKDDVGKNVHELEKSKRALE
In the case of B4, in data set [1], the “pH Range where Protein is >80% detected … Low” value was 5.1; the “pH Range where Protein is >80% detected … Other” value is listed as 3; the “pH Range where Protein is >80% detected … High” value is 9.1. Besides, the “Solubility” value in data set [4] was 95 mg/mL. Besides, in data set [2], the “SGF Half-life (t½)” value is 29 min. Besides, in data set [3] (heated from 25° C. to 95° C.), the “Tagg (pH 7.1)” value is over 95.

B5: SEQID-00100: nutritive polypeptide (protein, listed as Lactobacillus acidophilus)
chain: MSEEEIFNKIKDLIADNFEVDKDSITENTNFMNDLDADSIDLVEFILQLEDEFGAEIPDDEAEKIKTVGDAVSYIKSHQG
B5: in data set [1], the “pH Range where Protein is >80% detected … Low” value is listed as 4.3; the “pH Range where Protein is >80% detected … High” value was 7.1. Moreover, the “SGF Half-life (t½)” value in data set [2] is listed as 2 min. Further, in data set [3] (NS = protein not soluble), the “Tagg pH 2.8” value came out at 95, the “Tagg pH 3.7” value is reported as 95, the “Tagg pH 3.9” value is 95 and the “Tagg pH 4.3” value is recorded as 83. Moreover, in data set [3] (NS = protein not soluble), the “Tagg pH 4.6” value is listed as 84, the “Tagg pH 5.0” value came out at 95, the “Tagg pH 5.6” value was 95 and the “Tagg pH 6.0” value worked out at 95. The “Tagg pH 6.5” value in data set [3] (NS = protein not soluble) came out at 95. The “Tagg (pH 7.1)” value in data set [3] (setting [5]) is recorded as over 95.

B6: SEQID-00287: nutritive polypeptide (protein, listed as Saccharomyces cerevisiae)
chain: LVLGALLDTSHKFRNLDKDLCEKCAKCISMIGVLDVTKHEFKRTTYSENEVYDLNDSVQTIKFLIWVINDILV
modifications: strain ATCC 204508 / S288c
notes: nutritive polypeptide
B6: in data set [1], the “pH Range where Protein is >80% detected … Low” value is 6.2; the “pH Range where Protein is >80% detected … Other” value was determined as 2.6; the “pH Range where Protein is >80% detected … High” value was determined as 9.1. Besides, the “SGF Half-life (t½)” value in data set [2] was 3 min.

B7: SEQID-00102: nutritive polypeptide (protein, listed as Lactobacillus johnsonii)
chain: MTEEEIFNKIADMISERFSIDRDKITKDLNFQNDLDADSIDFVELVMDLEDTFGAEIPDDDAEKLQTVGEAVEYIKSHQN
For B7, the “Solubility” value in data set [4] stood at 120 mg/mL. Further, the “SGF Half-life (t½)” value in data set [2] is 0.6 min. Besides, the “Tagg (pH 7.1)” value in data set [3] (heated from 25° C. to 95° C.) is listed as over 95.

B8: SEQID-00236: nutritive polypeptide (protein, listed as Bos taurus)
chain: ALQEAHQQTLDDLQAEEDKVNTLTKAKTKLEQQVDDLEGSLEQEKKLRMDLERAKRKLEGDLKLA
B8: the “Solubility” value in data set [4] was found to be 60 mg/mL. For the same molecule, the “SGF Half-life (t½)” value in data set [2] is listed as 10 min.

B9: SEQID-00115: nutritive polypeptide (protein, listed as Sus scrofa)
chain: EDEDDKTVSDLAVVLFETATLRSGYLLPDTKAYGDRIERMLRLSLNIDPDAKVEEEPEEEPEETTEDTTEDTEQDDDEEMDAGADEEEQETSETSTAEKDE
Regarding B9, the “Solubility” value in data set [4] was 70 mg/mL.

B10: SEQID-00226: nutritive polypeptide (protein, listed as Bos taurus)
chain: QLQALQAQLTDTKKKVDDDLGTIENLEEAKKKLLKDVEVLSQRLEEKALAYDKLEKTKTRLQQELDDLLVDLDHQRQIVSNLEKKQKKFDQLLAEEKNIS
For B10, in data set [1], the “pH Range where Protein is >80% detected … Low” value is listed as 2.6; the “pH Range where Protein is >80% detected … High” value came to 9.1. Also, the “SGF Half-life (t½)” value in data set [2] is 0.7 min. Moreover, the “Tagg (pH 7.1)” value in data set [3] (heated from 25° C. to 95° C.) is over 95.

B11: SEQID-00241: nutritive polypeptide (protein, listed as Bos taurus)
chain: SELKKDIDDLELTLAKVEKEKHATENKVKNLTEEMAGLDETIAKLTKEKKALQEAHQQTLDDLQAEEDKVNTLTKAKTKLEQQVDDLEGSLEQEKKLRMDLERAKRKLEGDLKLA
For the molecule B11, in data set [1], the “pH Range where Protein is >80% detected … Low” value came to 4.3; the “pH Range where Protein is >80% detected … High” value stood at 9.1. The “SGF Half-life (t½)” value in data set [2] is given as 0.3 min. Besides, the “Tagg (pH 7.1)” value in data set [3] (heated from 25° C. to 95° C.) is recorded as over 95.

B12: SEQID-00598: nutritive polypeptide naturally produced in Flaxseed, recombinantly expressed in E. coli (protein, listed as Linum usitatissimum)
chain: MSRRCPGKNAWPELVGKSGNMAAATVERENRNVHAIVLKEGSAMTKDFRCDRVWVIVNDHGVVTSVPHIT
On to B12, for which the “Solubility” value in data set [4] was 150 mg/mL. For the same molecule, in data set [2], the “SGF Half-life (t½)” value is given as 0.5 min and the “Half-life” value is listed as 0.5 min.

B13: SEQID-00622: protein of the 168 nutritive polypeptide library (protein, listed as Oryza sativa)
chain: MASEGAVSPAFAYTVVYVKDVAKSAAFYSAAFGYTVRRLDQSHKWAELESGTTTIAFTPLHQRETDALTGAVQLPDSAGERGPVEICFDYADVDAAYRRAVDSGAVPVSPPEQKSWGQKVGYVRDIDGIIVRMGSHVRA
modifications: subsp. japonica
notes: protein of the 168 nutritive polypeptide library
For B13, in data set [1], the “pH Range where Protein is >80% detected … Low” value is listed as 2.8; the “pH Range where Protein is >80% detected … High” value is reported as 7.1. In data set [2], the “SGF Half-life (t½)” value is recorded as 6.6 min and the “Half-life” value is listed as 6.6 min. For the same molecule, in data set [3] (NS = protein not soluble), the “Tagg pH 2.8” value turned out to be 58.5, the “Tagg pH 3.7” value is on record as 42, the “Tagg pH 3.9” value is given as 42 and the “Tagg pH 4.3” value was found to be 43.5. In data set [3] (NS = protein not soluble), the “Tagg pH 4.6” value is 43.5, the “Tagg pH 5.0” value is 42.5, the “Tagg pH 5.6” value is reported as 45.5 and the “Tagg pH 6.0” value is listed as 46. Moreover, in data set [3] (NS = protein not soluble), the “Tagg pH 6.5” value is on record as 47. In data set [3] (setting [5]), the “Tagg (pH 7.1)” value came out at 95.
